Measurements as given in patent publication US20220411483A1 (Chugai, published 2022).
Substitutions are numbered along the chain they refer to.

T1: FcgRIIb (human, UniProt P31994 43-217)
T1 construct: extracellular domain; also called FcγRIIb
T1 sequence (looked up): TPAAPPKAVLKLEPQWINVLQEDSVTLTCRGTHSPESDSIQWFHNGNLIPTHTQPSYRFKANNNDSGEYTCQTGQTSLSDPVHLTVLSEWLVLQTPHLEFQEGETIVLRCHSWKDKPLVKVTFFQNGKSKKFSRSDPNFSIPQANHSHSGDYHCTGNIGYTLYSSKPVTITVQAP

T2: FcgRIIaR (human, UniProt P12318 34-217)
T2 construct: extracellular domain; also called FcγRIIa R type; FcγRIIa (R type)
T2 sequence (looked up): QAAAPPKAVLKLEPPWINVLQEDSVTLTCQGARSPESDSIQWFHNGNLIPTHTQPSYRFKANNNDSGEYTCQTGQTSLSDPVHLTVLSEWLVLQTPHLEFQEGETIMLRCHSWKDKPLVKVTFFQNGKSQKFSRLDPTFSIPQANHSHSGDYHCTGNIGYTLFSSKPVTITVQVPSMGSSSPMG

B1: IL6R-P743/IL6R-L (antibody, human IgG1, kappa)
heavy: QVQLQESGPGLVKPSETLSLTCAVSGHSISHDHAWSWVRQPPGEGLEWIGFISYSGITNYNPSLQGRVTISRDNSKNTLYLQMNSLRAEDTAVYYCARSLARTTAMDYWGEGTLVTVSSASTKGPSVFPLAPSSKSTSGGTAALGCLVKDYFPEPVTVSWNSGALTSGVHTFPAVLQSSGLYSLSSVVTVPSSSLGTQTYICNVNHKPSNTKVDKKVEPKSCDKTHTCPPCPAPELLGGDSVFLFPPKPKDTLMISRTPEVTCVVVDVSHEDPEVKFNWYVDGVEVHNAKTKPREEQYNSTYRVVSVLTVLHQDWLNGKEYKCKVSNKGLPSSIEKTISKAKGQPREPQVYTLPPSRDELTKNQVSLTCLVKGFYPSDIAVEWESNGQPENNYKTTPPVLDSDGSFFLYSKLTVDKSRWQQGNVFSCSVMHEALHNHYTQKSLSLSP
light: not shown
B2: IL6R-P559/IL6R-L (antibody, human IgG1, kappa)
heavy: B1 heavy with G239D, H270E, P273G, G329A, S332A, S333P
light: not shown
B3: IL6R-P729/IL6R-L (antibody, human IgG1, kappa)
heavy: B1 heavy with L237F, G239Q, F243M, H270P, Y298E, G329A, S332A, S333P
light: not shown
B4: IL6R-P744/IL6R-L (antibody, human IgG1, kappa)
heavy: B1 heavy with S300A, K324A, G329A, S332A, S333P
light: not shown
B5: IL6R-P737/IL6R-L (antibody, human IgG1, kappa)
heavy: B1 heavy with G239Q, F243M, H270P, Y298E, S326H, G329A, S332H, S333P
light: not shown
B6: IL6R-P733/IL6R-L (antibody, human IgG1, kappa)
heavy: B1 heavy with L237F, G239Q, F243M, H270P, Y298E, S326H, G329A, S332A, S333P
light: not shown
B7: IL6R-P555/IL6R-L (antibody, human IgG1, kappa)
heavy: B1 heavy with G239D, H270D, P273G, G329A, S332A, S333P
light: not shown
B8: IL6R-P691/IL6R-L (antibody, human IgG1, kappa)
heavy: B1 heavy with L237F, G239Q, F243M, Y298E, G329A, S332A, S333P
light: not shown
B9: IL6R-P562/IL6R-L (antibody, human IgG1, kappa)
heavy: B1 heavy with E235D, G239D, H270E, P273G, G329A, S332A, S333P
light: not shown
B10: IL6R-P588/IL6R-L (antibody, human IgG1, kappa)
heavy: B1 heavy with V266I, S269A, H270E, P273G, G329A, S332A, S333P
light: not shown
B11: IL6R-G1dGSS/IL6R-L (antibody, human IgG1, kappa)
heavy: B1 heavy with D240P
light: not shown
B12: IL6R-P587/IL6R-L (antibody, human IgG1, kappa)
heavy: B1 heavy with E235D, V266I, S269A, H270E, P273G, G329A, S332A, S333P
light: not shown
B13: IL6R-P727/IL6R-L (antibody, human IgG1, kappa)
heavy: B1 heavy with G239Q, F243M, H270P, Y298E, G329A, S332H, S333P
light: not shown

These binders were tested against T1, FcgRIIb (assay: SPR, amount bound per captured antibody).

Row | Relative FcgRIIb-binding Activity [IL6R-G1d/IL6R-L=100] | Binder
1 | 69.4 | B1
2 | 319 | B2
3 | 100 | B3
4 | 81.4 | B4
5 | 78.7 | B5
6 | 84.8 | B6
7 | 305 | B7
8 | 119 | B8
9 | 311 | B9
10 | 346 | B10
11 | 115 | B11
12 | 350 | B12
13 | 93 | B13

Each binder was assayed against T2, FcgRIIaR (assay: SPR, amount bound per captured antibody).

Row | Relative FcgRIIaR-binding Activity [IL6R-G1d/IL6R-L=100] | Binder
14 | 13.5 | B1
15 | 89.4 | B2
16 | 9 | B3
17 | 11.1 | B4
18 | 8 | B5
19 | 8.1 | B6
20 | 83.8 | B7
21 | 10.8 | B8
22 | 89.7 | B9
23 | 100 | B10
24 | 98.5 | B11
25 | 106 | B12
26 | 9.7 | B13

These binders were tested against T3, human complement C1q (human, UniProt P02745 23-245; P02746 28-253; P02747 29-245) (assay: SPR, C1q bound per antibody captured on Protein L).
T3 construct: Bought (PROSPEC or Calbiochem); also called human C1q
Procedure: The interaction between an antibody and human C1q was analyzed using Biacore T200 (GE Healthcare). HBS-EP+ (GE Healthcare) was used as the running buffer, and the measurement temperature was set at 25° C. Chips produced by immobilizing Protein L (ACTIGEN or BioVision) onto Series S sensor Chip CM4 (GE Healthcare) by amine coupling were used.
The antibodies of interest were captured onto these sensor chips, and allowed to interact with human complement C1q (PROSPEC or Calbiochem) diluted in the running buffer. The amount of antibody binding was determined, and comparisons were made among the antibodies. However, since the amount of C1q bound depends on the amount of captured antibodies, corrected values obtained by dividing the amount of C1q bound by the amount of each antibody captured were compared. Furthermore, by reaction with 10 mM glycine-HCl, pH 1.5, the antibodies captured onto the sensor chips were washed, and the sensor chips were recycled and reused.

T3 sequence (P02745 23-245 limits assumed, chain 1 of 3): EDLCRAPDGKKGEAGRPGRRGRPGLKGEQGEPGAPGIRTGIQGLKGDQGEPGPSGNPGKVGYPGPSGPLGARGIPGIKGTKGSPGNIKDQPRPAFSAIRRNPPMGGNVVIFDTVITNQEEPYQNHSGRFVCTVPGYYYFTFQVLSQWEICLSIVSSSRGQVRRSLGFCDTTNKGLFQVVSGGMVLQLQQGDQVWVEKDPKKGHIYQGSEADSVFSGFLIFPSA
T3 sequence (P02746 28-253 limits assumed, chain 2 of 3): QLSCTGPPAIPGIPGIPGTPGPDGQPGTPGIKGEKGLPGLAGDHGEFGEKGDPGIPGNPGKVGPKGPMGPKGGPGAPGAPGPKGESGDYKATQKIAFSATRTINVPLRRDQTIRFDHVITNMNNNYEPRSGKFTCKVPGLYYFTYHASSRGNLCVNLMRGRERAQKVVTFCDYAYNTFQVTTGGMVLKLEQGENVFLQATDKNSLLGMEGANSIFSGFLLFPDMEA
T3 sequence (P02747 29-245 limits assumed, chain 3 of 3): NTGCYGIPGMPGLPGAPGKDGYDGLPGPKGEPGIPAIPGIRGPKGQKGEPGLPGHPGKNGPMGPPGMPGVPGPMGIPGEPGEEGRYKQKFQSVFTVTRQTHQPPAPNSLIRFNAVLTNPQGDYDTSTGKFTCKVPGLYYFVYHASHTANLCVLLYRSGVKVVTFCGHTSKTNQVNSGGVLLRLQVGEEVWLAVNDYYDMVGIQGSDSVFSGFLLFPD

Row | Amount of C1q-binding when that for G1d is Defined as 100 [G1d=100] | Binder
27 | 20.9 | B1
28 | 34.1 | B2
29 | 22.8 | B3
30 | 13.6 | B4
31 | 45.7 | B5
32 | 23 | B6
33 | 21 | B8
34 | 29.4 | B9
35 | 108 | B10
36 | 15.2 | B11
37 | 132 | B12
38 | 35.5 | B13
